Experimental data reported in the supplement of paper PMC10567573.

B1: DLC1 (parent)
chain: HVTHWMGQPFNSDDRNTACHHGLV
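Further: lentivirally expressed fusions sorted by FACS into six bins by GFP to DsRed ratio, PSI derived from sequencing read proportions per bin multiplied by bin number.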

Variants of: B1
Test: protein stability index of a GFP-peptide fusion (GPS, HEK-293T) (PSI 1-6); higher = more stable
Details: c terminus: a fixed tail appended
HVTHWMGQPFNSADRNTACHHGLV [D13A] gave a protein stability index of 1.48. Work on HVTHWMGQPFNSDDRNVACHHGLV [T17V] yielded a protein stability index of 2.1. For HVTHWMGQPFNSDDRNFACHHGLV [T17F], the protein stability index was 2.06. With HVTHWMGQPFNSDDRNNACHHGLV [T17N] the protein stability index was 2.21. HVTHWMGQPFNSDDRNLACHHGLV [T17L] gave a protein stability index of 1.68. In the case of HVTHWMGQPFNSDDRNAACHHGLV [T17A], the protein stability index is reported as 1.99. With HVTHWMGQPFNSDDRNEACHHGLV [T17E] the protein stability index was 2.32. HVTHWMGQPFNSDDRNCACHHGLV [T17C] gave a protein stability index of 1.66. Work on HVTHWMGQPFNSDDRNDACHHGLV [T17D] yielded a protein stability index of 2.65. In the case of HVTHWMGQPFNSDDRNQACHHGLV [T17Q], the protein stability index is reported as 2.38. HVTHWMGQPFNSDDRNRACHHGLV [T17R] gave a protein stability index of 1.99. Variant HVTHWMGQPFNSDDRNWACHHGLV [T17W] has a protein stability index of 1.82. With HVTHWMGQPFNSDDRNIACHHGLV [T17I] the protein stability index was 2.25. Work on HVTHWMGQPFNSDDRNKACHHGLV [T17K] yielded a protein stability index of 2.01. For HVTHWMGQPFNSDDRNMACHHGLV [T17M], the protein stability index was 1.72. Variant HVTHWMGQPFNSDDRNHACHHGLV [T17H] has a protein stability index of 2.23. In the case of HVTHWMGQPFNSDDRNGACHHGLV [T17G], the protein stability index is reported as 2.04. In the case of HVTHWMGQPFNSDDRNSACHHGLV [T17S], the protein stability index is reported as 2.36. For HVTHWMGQPFNSDDRNPACHHGLV [T17P], the protein stability index was 2.17. With HVTHWMGQPFNSDDRNYACHHGLV [T17Y] the protein stability index was 1.86. For HVTHWMGQPFNSDDRNTACDHGLV [H20D], the protein stability index was 2.36. In the case of HVTHWMGQPFNSDDRNTACLHGLV [H20L], the protein stability index is reported as 1.6. Variant HVTHWMGQPFNSDDRNTACGHGLV [H20G] has a protein stability index of 2.16. HVTHWMGQPFNSDDRNTACIHGLV [H20I] gave a protein stability index of 2.13. In the case of HVTHWMGQPFNSDDRNTACAHGLV [H20A], the protein stability index is reported as 2.37. For HVTHWMGQPFNSDDRNTACFHGLV [H20F], the protein stability index was 2.3. Variant HVTHWMGQPFNSDDRNTACCHGLV [H20C] has a protein stability index of 2.25. With HVTHWMGQPFNSDDRNTACEHGLV [H20E] the protein stability index was 2.44. Work on HVTHWMGQPFNSDDRNTACMHGLV [H20M] yielded a protein stability index of 1.79. With HVTHWMGQPFNSDDRNTACKHGLV [H20K] the protein stability index was 2.41. Work on HVTHWMGQPFNHDDRNTACHHGLV [S12H] yielded a protein stability index of 2.04. Work on HVTHWMGQPFNQDDRNTACHHGLV [S12Q] yielded a protein stability index of 1.98. In the case of HVTHWMGQPFNMDDRNTACHHGLV [S12M], the protein stability index is reported as 2.61. HVTHWMGQPFNDDDRNTACHHGLV [S12D] showed a protein stability index of 2.62. HVTHWMGQPFNFDDRNTACHHGLV [S12F] showed a protein stability index of 1.85. HVTHWMGQPFNRDDRNTACHHGLV [S12R] gave a protein stability index of 2.01. In the case of HVTHWMGQPFNTDDRNTACHHGLV [S12T], the protein stability index is reported as 2.02. In the case of HVTHWMGQPFNKDDRNTACHHGLV [S12K], the protein stability index is reported as 2.51. HVTHWMGQPFNVDDRNTACHHGLV [S12V] showed a protein stability index of 1.8. In the case of HVTHWMGQPFNLDDRNTACHHGLV [S12L], the protein stability index is reported as 2.11. HVTHWMGQPFNADDRNTACHHGLV [S12A] showed a protein stability index of 2.02. For HVTHWMGQPFNYDDRNTACHHGLV [S12Y], the protein stability index was 1.78. HVTHWMGQPFNNDDRNTACHHGLV [S12N] showed a protein stability index of 2.55. Work on HVTHWMGQPFNGDDRNTACHHGLV [S12G] yielded a protein stability index of 2.34. In the case of HVTHWMGQPFNIDDRNTACHHGLV [S12I], the protein stability index is reported as 2.05. With HVTHWMGQPFNEDDRNTACHHGLV [S12E] the protein stability index was 2.52. In the case of HVTHWMGQPFNCDDRNTACHHGLV [S12C], the protein stability index is reported as 1.51. For HVTHWMGQPFNWDDRNTACHHGLV [S12W], the protein stability index was 1.92. Work on HVTHWMGQPFNPDDRNTACHHGLV [S12P] yielded a protein stability index of 2.29. HVTHWMGQPFNSDDRNTAPHHGLV [C19P] gave a protein stability index of 2.43. Work on HVTHWMGQPFNSDDRNTAQHHGLV [C19Q] yielded a protein stability index of 2.61. HVTHWMGQPFNSDDRNTAFHHGLV [C19F] gave a protein stability index of 1.25. In the case of HVTHWMGQPFNSDDRNTASHHGLV [C19S], the protein stability index is reported as 2.41. Work on HVTHWMGQPFNSDDRNTAMHHGLV [C19M] yielded a protein stability index of 2.31. HVTHWMGQPFNSDDRNTADHHGLV [C19D] showed a protein stability index of 2.68. Variant HVTHWMGQPFNSDDRNTAEHHGLV [C19E] has a protein stability index of 2.92. HVTHWMGQPFNSDDRNTAWHHGLV [C19W] gave a protein stability index of 1.48. For HVTHWMGQPFNSDDRNTAHHHGLV [C19H], the protein stability index was 2.13. For HVTHWMGQPFNSDDRNTALHHGLV [C19L], the protein stability index was 2.02. For HVTHWMGQPFNSDDRNTANHHGLV [C19N], the protein stability index was 2.43. Variant HVTHWMGQPFNSDDRNTAAHHGLV [C19A] has a protein stability index of 2.5. With HVTHWMGQPFNSDDRNTARHHGLV [C19R] the protein stability index was 2.4. HVTHWMGQPFNSDDRNTAKHHGLV [C19K] showed a protein stability index of 2.2. With HVTHWMGQPFNSDDRNTAIHHGLV [C19I] the protein stability index was 2.4. HVTHWMGQPFNSDDRNTAVHHGLV [C19V] showed a protein stability index of 2.04. With HVTHWMGQPFNSDDRNTAGHHGLV [C19G] the protein stability index was 1.96. With HVTHWMGQPFNSDDRNTAYHHGLV [C19Y] the protein stability index was 1.8. In the case of HVTHWMGQPFNSDDRNTATHHGLV [C19T], the protein stability index is reported as 2.61. Variant HVTHWMGQPFNSDDRITACHHGLV [N16I] has a protein stability index of 2.13. HVTHWMGQPFNSDDRRTACHHGLV [N16R] gave a protein stability index of 2.16. With HVTHWMGQPFNSDDRATACHHGLV [N16A] the protein stability index was 1.75. Work on HVTHWMGQPFNSDDRLTACHHGLV [N16L] yielded a protein stability index of 1.8. With HVTHWMGQPFNSDDRCTACHHGLV [N16C] the protein stability index was 2.54. Variant HVTHWMGQPFNSDDRPTACHHGLV [N16P] has a protein stability index of 1.64. Variant HVTHWMGQPFNSDDRYTACHHGLV [N16Y] has a protein stability index of 2.32. HVTHWMGQPFNSDDRDTACHHGLV [N16D] showed a protein stability index of 2.35. For HVTHWMGQPFNSDDRETACHHGLV [N16E], the protein stability index was 2.35. With HVTHWMGQPFNSDDRFTACHHGLV [N16F] the protein stability index was 1.92. Work on HVTHWMGQPFNSDDRKTACHHGLV [N16K] yielded a protein stability index of 1.98. HVTHWMGQPFNSDDRVTACHHGLV [N16V] gave a protein stability index of 1.22. With HVTHWMGQPFNSDDRGTACHHGLV [N16G] the protein stability index was 1.97. Work on HVTHWMGQPFNSDDRWTACHHGLV [N16W] yielded a protein stability index of 1.3. Work on HVTHWMGQPFNSDDRQTACHHGLV [N16Q] yielded a protein stability index of 2.67. HVTHWMGQPFNSDDRMTACHHGLV [N16M] gave a protein stability index of 1.76. HVTHWMGQPFNSDDRSTACHHGLV [N16S] gave a protein stability index of 1.81. Variant HVTHWMGQPFNSDDRTTACHHGLV [N16T] has a protein stability index of 1.99. Work on HVTHWMGQPFNSDDRHTACHHGLV [N16H] yielded a protein stability index of 2.43. For HVTHWMGQPYNSDDRNTACHHGLV [F10Y], the protein stability index was 1.92. In the case of HVTHWMGQPWNSDDRNTACHHGLV [F10W], the protein stability index is reported as 1.93. Work on HVTHWMGQPSNSDDRNTACHHGLV [F10S] yielded a protein stability index of 2.35. Work on HVTHWMGQPQNSDDRNTACHHGLV [F10Q] yielded a protein stability index of 2.5. In the case of HVTHWMGQPRNSDDRNTACHHGLV [F10R], the protein stability index is reported as 2.79. Work on HVTHWMGQPTNSDDRNTACHHGLV [F10T] yielded a protein stability index of 2.29. For HVTHWMGQPVNSDDRNTACHHGLV [F10V], the protein stability index was 2.36.
